Laboratory results taken from the supplement of paper PMC10126150.
± gives the standard deviation of the averaged measurements.

Tested on: ATP
Assay: switch fluorescence ratio, 500 uM ATP over buffer (Cy3 cluster intensity, sum of 5 cycles each) (fold (ratio)); higher = stronger signal-on switching upon ATP binding; sequences stand for … in TCGTCGGCAGCGTCAGATGTGTATAAGAGACAGTTTTTTTTTTTTTTTTTTTTTTTTT…TC
Details: aptamer strand: ATP DNA aptamer (quencher-CACCTGGGGGAGTATTGCGGAGGAAGG + anchor), 100 nM annealed; ATP concentration: 500 uM
Method in brief: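 The fluorescence ratio divides summed target-cycle Cy3 intensity by summed buffer-cycle Cy3 intensity for each cluster and is averaged per switch-domain sequence. Cy3-labelled switching-strand clusters on a modified Illumina MiSeq flow-cell were annealed to 100 nM quencher-labelled ATP aptamer, then imaged in selection buffer and again after 15 min with 500 uM ATP at 22 °C. Five such cycles were run, with NaOH stripping and re-annealing between them, and clusters outside 100-1000 RFU were excluded.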
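Note: ATP exposure 15 min at 22 °C before imaging.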

Sequence | switch fluorescence ratio
TTGCGTGGGG | 1.005 ± 0.0065
TTGCTAATGC | 1.18 ± 0.23
TTGCTACGGA | 1.04 ± 0.013
TTGCTAGTTA | 0.971 ± 0.037
TTGCTATGAA | 1.01 ± 0.054
TTGCTATTCG | 0.992 ± 0.05
TTGCTATTTT | 1 ± 0.028
TTGCTCTCTG | 1.03 ± 0.031
TTGCTGCAAA | 1.1 ± 0.12
TTGCTGGCGC | 1.036 ± 0.0055
TTGCTGGGG | 0.972 ± 0.037
TTGCTTCGTT | 1.02 ± 0.029
TTGCTTCTAG | 0.979 ± 0.043
TTGCTTGTAT | 0.9992 ± 0.0098
TTGCTTTATT | 0.987 ± 0.016
TTGGAAAAAT | 1.05 ± 0.071
TTGGAAAAGT | 0.988 ± 0.036
TTGGAAAATA | 1.009 ± 0.0042
TTGGAAAGTG | 1.05 ± 0.13
TTGGAAAGTT | 1.01 ± 0.028
TTGGAAATGG | 1.03 ± 0.045
TTGGAACGAT | 1.02 ± 0.07
TTGGAAGGGG | 1.13 ± 0.24
TTGGAAGTGC | 1 ± 0.056
TTGGAATGGA | 0.989 ± 0.029

Sequence | switch fluorescence ratio
TTGGAATGT | 1.029 ± 0.0083
TTGGAATTCC | 0.989 ± 0.05
TTGGACGGAA | 1.224 ± 0.0051
TTGGACTAGG | 1.02 ± 0.024
TTGGAGAGTG | 0.963 ± 0.021
TTGGAGCATG | 1.28 ± 0.049
TTGGAGGAAA | 1.09 ± 0.13
TTGGAGGCGA | 0.994 ± 0.062
TTGGAGGGCG | 1.03 ± 0.017
TTGGAGGGTT | 0.992 ± 0.017
TTGGAGTGGT | 1.03 ± 0.013
TTGGAGTTGT | 1.02 ± 0.098
TTGGATATTC | 0.997 ± 0.033
TTGGATCCGC | 1.32 ± 0.45
TTGGATCCGG | 0.98 ± 0.039
TTGGATGAGG | 0.973 ± 0.048
TTGGATGCGG | 1.0022 ± 0.00011
TTGGATGGTT | 1.01 ± 0.03
TTGGATGTAA | 1 ± 0.036
TTGGATTTCA | 0.972 ± 0.045
TTGGCACAAT | 1.05 ± 0.026
TTGGCACGGG | 1.03 ± 0.022
TTGGCAGGGG | 1.06 ± 0.047
TTGGCCGATG | 1.001 ± 0.0098
TTGGCCGCAC | 2.67 ± 0.049

Sequence | switch fluorescence ratio
TTGGCCGGAT | 0.9532 ± 0.0042
TTGGCGCCTG | 0.9947 ± 0.0075
TTGGCGGAGG | 1.007 ± 0.0058
TTGGCGGGGC | 1.02 ± 0.012
TTGGCGTTGG | 0.987 ± 0.026
TTGGCGTTTT | 1.04 ± 0.026
TTGGCTGGCT | 1.08 ± 0.071
TTGGCTGTAG | 1.13 ± 0.13
TTGGCTTAGG | 1.05 ± 0.096
TTGGCTTAGT | 0.991 ± 0.034
TTGGGAAAGG | 1.002 ± 0.0053
TTGGGAATAC | 3.23 ± 0.53
TTGGGACCGT | 1 ± 0.0015
TTGGGACGAC | 1.022 ± 0.0084
TTGGGACTTC | 1.03 ± 0.012
TTGGGAGGCT | 1 ± 0.044
TTGGGAGGGC | 1.18 ± 0.27
TTGGGAGTGT | 0.994 ± 0.031
TTGGGATTGT | 0.989 ± 0.014
TTGGGCAACA | 1.05 ± 0.079
TTGGGCAACG | 1.06 ± 0.022
TTGGGCAATA | 1.77 ± 0.35
TTGGGCAGCA | 0.99411 ± 0.00084
TTGGGCCGGT | 1 ± 0.037
TTGGGCGATT | 1.06 ± 0.045

Sequence | switch fluorescence ratio
TTGGGCGGAA | 1.03 ± 0.071
TTGGGCGGCG | 0.982 ± 0.074
TTGGGCGGGA | 0.968 ± 0.099
TTGGGCGTTT | 1 ± 0.043
TTGGGCTACG | 1.002 ± 0.0048
TTGGGCTCAG | 0.982 ± 0.013
TTGGGCTGGA | 0.961 ± 0.054
TTGGGCTTGG | 0.997 ± 0.033
TTGGGGAAAA | 1.04 ± 0.054
TTGGGGACAT | 0.98 ± 0.043
TTGGGGAGAT | 0.989 ± 0.014
TTGGGGAGGT | 1.01 ± 0.037
TTGGGGCAAC | 1.03 ± 0.047
TTGGGGCTGG | 1.01 ± 0.013
TTGGGGCTT | 1.32 ± 0.41
TTGGGGCTTG | 0.998 ± 0.012
TTGGGGGAAC | 1 ± 0.014
TTGGGGGAGT | 1.03 ± 0.022
TTGGGGGATC | 0.982 ± 0.015
TTGGGGGATT | 1 ± 0.022
TTGGGGGCAC | 1.024 ± 0.0069
TTGGGGGCCC | 1.01 ± 0.033
TTGGGGGGAT | 1.02 ± 0.053
TTGGGGGGCT | 1.01 ± 0.09
TTGGGGGGG | 1.02 ± 0.035

Sequence | switch fluorescence ratio
TTGGGGGGTA | 0.987 ± 0.028
TTGGGGGTGC | 0.997 ± 0.052
TTGGGGGTTC | 1.01 ± 0.05
TTGGGGTATC | 1.01 ± 0.02
TTGGGGTCGG | 0.999 ± 0.037
TTGGGGTCTT | 1.02 ± 0.043
TTGGGGTGCT | 0.992 ± 0.035
TTGGGTATTG | 0.966 ± 0.034
TTGGGTCTCC | 1.03 ± 0.027
TTGGGTCTTC | 0.9736 ± 0.0014
TTGGGTGCAG | 1.016 ± 0.0075
TTGGGTGCCG | 1.03 ± 0.048
TTGGGTTAAG | 0.983 ± 0.015
TTGGGTTAGG | 0.979 ± 0.021
TTGGGTTATG | 1 ± 0.013
TTGGGTTATT | 0.979 ± 0.029
TTGGGTTCCG | 0.996 ± 0.057
TTGGGTTGCT | 1.12 ± 0.21
TTGGGTTGTT | 0.986 ± 0.033
TTGGGTTTGT | 0.997 ± 0.017
TTGGTAAGAC | 1.14 ± 0.12
TTGGTAGCGG | 1.02 ± 0.034
TTGGTAGGGT | 0.995 ± 0.031
TTGGTAGTGC | 0.973 ± 0.015
TTGGTATGTG | 0.968 ± 0.017

Sequence | switch fluorescence ratio
TTGGTCGCGT | 1.003 ± 0.0019
TTGGTCGGGA | 1.15 ± 0.2
TTGGTGCAGC | 1.025 ± 0.0075
TTGGTGCCTT | 1.07 ± 0.033
TTGGTGGCGG | 0.978 ± 0.028
TTGGTGGGCA | 0.993 ± 0.038
TTGGTGGGTA | 0.988 ± 0.013
TTGGTGGGTG | 1.01 ± 0.045
TTGGTGGTCC | 0.999 ± 0.012
TTGGTGGTTC | 0.99 ± 0.037
TTGGTGTCGC | 1.016 ± 0.0034
TTGGTGTCTT | 0.959 ± 0.011
TTGGTTAAGT | 1.01 ± 0.046
TTGGTTAGGG | 0.986 ± 0.027
TTGGTTATAG | 1.01 ± 0.011
TTGGTTATCG | 0.97068 ± 0.00069
TTGGTTCGCC | 1.003 ± 0.0097
TTGGTTGAGA | 0.9939 ± 0.0071
TTGGTTGCGG | 1.02 ± 0.024
TTGGTTTAGG | 0.983 ± 0.022
TTGGTTTATC | 1 ± 0.015
TTGGTTTTAA | 1.03 ± 0.014
TTGTAATGAT | 0.988 ± 0.027
TTGTAATTAG | 1 ± 0.039
TTGTACGCTA | 1.82 ± 0.73

Sequence | switch fluorescence ratio
TTGTACGTGG | 1.07 ± 0.023
TTGTAGCTTT | 1.12 ± 0.089
TTGTAGGAGG | 0.9811 ± 0.0032
TTGTAGGATA | 0.994 ± 0.012
TTGTAGGGGT | 1.02 ± 0.052
TTGTAGGGT | 0.986 ± 0.014
TTGTAGTCTC | 1.03 ± 0.11
TTGTATTTA | 1.01 ± 0.05
TTGTATTTTG | 0.985 ± 0.038
TTGTATTTTT | 0.98 ± 0.033
TTGTCATTTT | 1.04 ± 0.067
TTGTCGGCG | 1 ± 0.013
TTGTCGGCTT | 1.002 ± 0.0092
TTGTCGTGCC | 1.031 ± 0.0098
TTGTCGTGTG | 1 ± 0.033
TTGTCTGTTA | 1 ± 0.043
TTGTGAAAAA | 0.972 ± 0.026
TTGTGAAATT | 0.993 ± 0.015
TTGTGAACCG | 0.973 ± 0.014
TTGTGAATTA | 0.982 ± 0.022
TTGTGAATTC | 0.977 ± 0.043
TTGTGAGTTT | 1 ± 0.055
TTGTGATGTG | 0.986 ± 0.023
TTGTGATTAG | 0.982 ± 0.032
TTGTGCAAGG | 1.34 ± 0.47

Sequence | switch fluorescence ratio
TTGTGCATTT | 1.01 ± 0.011
TTGTGCCGGG | 0.9391 ± 0.0045
TTGTGCGGGA | 0.999 ± 0.013
TTGTGCTGGG | 0.998 ± 0.022
TTGTGCTTTA | 1.006 ± 0.0062
TTGTGGAGAG | 1.09 ± 0.12
TTGTGGAGTT | 1.01 ± 0.017
TTGTGGGAGG | 0.997 ± 0.033
TTGTGGGCGA | 0.9947 ± 0.0014
TTGTGGGGAC | 1 ± 0.033
TTGTGGGGGT | 0.998 ± 0.02
TTGTGGGTTG | 1.89 ± 1.2
TTGTGGTCGC | 0.97 ± 0.024
TTGTGGTTGG | 0.994 ± 0.021
TTGTGTAGTT | 1.01 ± 0.024
TTGTGTATGC | 0.958 ± 0.1
TTGTGTGGCA | 1.02 ± 0.054
TTGTGTGGGT | 0.993 ± 0.02
TTGTGTGGTT | 0.963 ± 0.038
TTGTGTGTCA | 0.994 ± 0.022
TTGTGTTGCG | 1.03 ± 0.051
TTGTGTTGGG | 1.01 ± 0.034
TTGTGTTTCT | 0.9974 ± 0.0066
TTGTGTTTTG | 1.16 ± 0.39
TTGTTACACA | 1.05 ± 0.043
